The values that follow come from patent publication US20080254032A1 (published 2008).

Like-named read-outs stand apart in the source and are kept apart here.

Assay [1] has as its target T1, human M-CSF (human, UniProt P09603 33-190).
T1 chain: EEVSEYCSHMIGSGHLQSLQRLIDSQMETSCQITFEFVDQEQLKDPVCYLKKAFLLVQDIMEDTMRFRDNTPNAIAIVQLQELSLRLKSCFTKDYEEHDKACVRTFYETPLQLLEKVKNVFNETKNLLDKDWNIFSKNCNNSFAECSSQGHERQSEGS
In words: receptor binding inhibition: antibody titrated against 125I-M-CSF binding to c-fms on cells (NIH-3T3/human c-fms or M-NSF-60).

Assay [2] concerns the target T1, human M-CSF. Put plainly: SPR, BIACORE 3000, 25 C, M-CSF amine-coupled on B1 chip, antibody injected, 1:1 global fit. A general note: Surface plasmon resonance follows binding to a sensor surface in real time, without labels.
Assay [3] concerns the target T1, human M-CSF. In words: cell-based or functional assay.
The target in assay [4] is T1, human M-CSF. In words: receptor binding inhibition: antibody titrated against 125I-M-CSF binding to c-fms on cells (NIH-3T3/human c-fms or M-NSF-60).
Assay [5] concerns the target T1, human M-CSF. Put plainly: cell-based or functional assay.
For assay [6], the target named is T1, human M-CSF. In words: SPR, BIACORE 3000, 25 C, M-CSF amine-coupled on CM5 chip, antibody injected, 1:1 global fit.

B1: monoclonal antibody 2.7.3 (antibody, human IgG4, kappa, V domains shown)
VH: QVQLVESGGGVVQPGRSLRLSCAASGFTFSSYGMHWVRQAPGKGLEWVAFIWYDGSNKYYADSVKGRFTISRDNSKNTLYLQMNSLRAEDTAVYYCARGYRVYFDYWGQGTLVTVSS
VL: DIQMTQSPSSVSASVGDRVTITCRASQDISSWLAWYQRKPGKAPKLQIYAASSLESGVPSRFNGSGSGTDFTLSISSLQPEDFATYYCQQTNSFPLTFGGGTKVEIKR
The term IC50 denotes the concentration that inhibits the measured activity by half. By Kd is commonly meant a measure of binding affinity in units of concentration. Read a low Kd as a tighter complex. Regarding B1, the IC50 with human M-CSF [1] was 0.308 nM. Moreover, in the assay with human M-CSF [2], the Kd was 4.7 nM. Further, in the assay with human M-CSF [3], the “Human Whole Blood Monocyte Activation Assay [IC50, M]” value stood at 7.15e-10 M and the “M-CSF Mouse Monocytic Cell Proliferation Assay [IC50, M]” value stood at 1.96e-10 M.

B2: monoclonal antibody 9.14.4 (antibody, human IgG4, kappa)
heavy: QVQLVESGGGLVKPGGSLRLSCAASGFTFSDYYMSWIRQAPGKGLEWVSYISSSGSTIYYADSVKGRFTISRDNAKNSLYLQMNSLRAEDTAVYYCARGLTGDYWGQGTLVTVSSASTKGPSVFPLAPCSRSTSESTAALGCLVKDYFPEPVTVSWNSGALTSGVHTFPAVLQSSGLYSLSSVVTVPSSSLGTKTYTCNVDHKPSNTKVDKRVESKYGPPCPSCPAPEFLGGPSVFLFPPKPKDTLMISRTPEVTCVVVDVSQEDPEVQFNWYVDGVEVHNAKTKPREEQFNSTYRVVSVLTVLHQDWLNGKEYKCKVSNKGLPSSIEKTISKAKGQPREPQVYTLPPSQEEMTKNQVSLTCLVKGFYPSDIAVEWESNGQPENNYKTTPPVLDSDGSFFLYSRLTVDKSRWQEGNVFSCSVMHEALHNHYTQKSLSLSPGK
light: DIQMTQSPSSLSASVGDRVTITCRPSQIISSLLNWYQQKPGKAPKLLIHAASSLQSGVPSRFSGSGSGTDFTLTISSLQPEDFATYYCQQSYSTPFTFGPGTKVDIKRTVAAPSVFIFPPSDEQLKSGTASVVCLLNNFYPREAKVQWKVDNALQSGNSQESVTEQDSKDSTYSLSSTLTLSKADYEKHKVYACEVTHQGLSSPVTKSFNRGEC
B2: the IC50 in the assay with human M-CSF [4] was found to be 0.041 nM. Besides, in the assay with human M-CSF [5], the “Human Whole Blood Monocyte Activation Assay [IC50, M]” value worked out at 6.48e-10 M and the “M-CSF Mouse Monocytic Cell Proliferation Assay [IC50, M]” value is 2.02e-10 M.

B3: monoclonal antibody 8.10.3 (antibody, human IgG2, kappa, V domains shown)
VH: EVQLVESGGGLVQPGGSLRLSCAASGFTFSSFSMTWVRQAPGKGLEWVSYISSRSSTISYADSVKGRFTISRDNAKNSLYLQMNSLRDEDTAVYYCARDPLLAGATFFDYWGQGTLVTVSS
VL: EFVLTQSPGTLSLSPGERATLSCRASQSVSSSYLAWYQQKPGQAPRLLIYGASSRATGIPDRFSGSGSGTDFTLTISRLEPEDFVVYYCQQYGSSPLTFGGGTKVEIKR
notes: Human antibody from hybridoma 8.10.3
The molecule B3 came in with an IC50 in the assay with human M-CSF [4] of 1.5 nM. For the same molecule, in the assay with human M-CSF [5], the “Human Whole Blood Monocyte Activation Assay [IC50, M]” value was found to be 2.8e-10 M and the “M-CSF Mouse Monocytic Cell Proliferation Assay [IC50, M]” value was 4.13e-10 M.

B4: monoclonal antibody 100 (antibody, human IgG2, kappa, V domains shown)
VH: EVQLLESGGGLVQPGGSLRLSCAASGFTFSSYAMSWVRQAPGKGLEWVSAISGRGGRTYFADSVKGRFTISRDNSKNTLYLQMNSLRAEDTAVYFCAVEGYSGRYGFFDYWGQGTLVTVSS
VL: EIVMTQSPATLSVSPGERATLSCRASQSVSSNLAWYQQKPGQAPRLLIYGASTRASGIPDRISGSGSGTEFTLIISSLQSEDFAVYYCQQSNNWPFTFGPGTKVDIKR
What is called koff is the rate constant with which the complex falls apart. B4: the IC50 with human M-CSF [1] amounted to 1.25 nM. In the assay with human M-CSF [6], this molecule returned a Kd of 0.02 nM and a koff of 1.7e-05 s⁻¹. In addition, in the assay with human M-CSF [3], the “Human Whole Blood Monocyte Activation Assay [IC50, M]” value was determined as 1.53e-10 M and the “M-CSF Mouse Monocytic Cell Proliferation Assay [IC50, M]” value was determined as 7.44e-10 M.

B5: monoclonal antibody 9.14.4I (antibody, human IgG2, kappa)
heavy: QVQLVESGGGLVKPGGSLRLSCAASGFTFSDYYMSWIRQAPGKGLEWVSYISSSGSTIYYADSVKGRFTISRDNAKNSLYLQMNSLRAEDTAVYYCARGLTGDYWGQGTLVTVSSASTKGPSVFPLAPCSRSTSESTAALGCLVKDYFPEPVTVSWNSGALTSGVHTFPAVLQSSGLYSLSSVVTVPSSNFGTQTYTCNVDHKPSNTKVDKTVERKCCVECPPCPAPPVAGPSVFLFPPKPKDTLMISRTPEVTCVVVDVSHEDPEVQFNWYVDGVEVHNAKTKPREEQFNSTFRVVSVLTVVHQDWLNGKEYKCKVSNKGLPAPIEKTISKTKGQPREPQVYTLPPSREEMTKNQVSLTCLVKGFYPSDIAVEWESNGQPENNYKTTPPMLDSDGSFFLYSKLTVDKSRWQQGNVFSCSVMHEALHNHYTQKSLSLSPGK
light: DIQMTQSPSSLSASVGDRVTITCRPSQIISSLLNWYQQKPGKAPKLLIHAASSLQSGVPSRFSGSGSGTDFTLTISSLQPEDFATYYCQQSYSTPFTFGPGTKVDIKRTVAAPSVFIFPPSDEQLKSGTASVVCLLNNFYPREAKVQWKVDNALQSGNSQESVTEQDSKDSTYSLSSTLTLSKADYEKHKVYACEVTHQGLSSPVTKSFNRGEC
For the molecule B5, the IC50 with human M-CSF [4] worked out at 0.297 nM. In the assay with human M-CSF [5], the “Human Whole Blood Monocyte Activation Assay [IC50, M]” value turned out to be 2.49e-10 M and the “M-CSF Mouse Monocytic Cell Proliferation Assay [IC50, M]” value worked out at 2.02e-10 M.

B6: monoclonal antibody 1.120.1 (antibody, human IgG2, kappa, V domains shown)
VH: QVQLVQSGAEVKKPGASVKVSCKASGYTFTSYGISWVRQAPGQGLEWMGWISAYNGNTNYAQKLQDRVTMTTDTSTTTAYMELRSLRSDDTAVYYCARRAYGANFFDYWGQGTLVTVSS
VL: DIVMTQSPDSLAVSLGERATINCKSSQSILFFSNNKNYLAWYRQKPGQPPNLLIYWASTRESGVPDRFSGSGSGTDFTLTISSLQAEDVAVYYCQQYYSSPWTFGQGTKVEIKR
Molecule B6 came in with an IC50 with human M-CSF [1] of 0.157 nM. Besides, the Kd in the assay with human M-CSF [2] turned out to be 5.4 nM. For the same molecule, in the assay with human M-CSF [3], the “Human Whole Blood Monocyte Activation Assay [IC50, M]” value was determined as 8.85e-10 M and the “M-CSF Mouse Monocytic Cell Proliferation Assay [IC50, M]” value was 1.99e-10 M.

B7: monoclonal antibody 252 (antibody, human IgG2, kappa, V domains shown)
VH: QVQLVESGGGLVKPGGSLRLSCAASGFTFSDYYMSWIRQAPGKGLEWISYISGSGSTIYYADSVKGRFTISRDNAKNSLYLQMNSLRAEDTAVYHCARALGGMDVWGQGTTVTVSS
VL: DIQMTQSPSSLSASVGDRVTITCRASQSISGFLNWYQQKPGKAPKLLIYATSSLQSGVPFRFSGSGSGTDFTLTISSLQPEDFATYYCQQSYSVPFTFGPGTKVDIKR
Molecule B7 had an IC50 in the assay with human M-CSF [1] of 0.747 nM. For the same molecule, in the assay with human M-CSF [6], binding was put at a Kd of 0.0133 nM and the koff was 1.03e-06 s⁻¹. Further, in the assay with human M-CSF [3], the “Human Whole Blood Monocyte Activation Assay [IC50, M]” value is 8.67e-10 M and the “M-CSF Mouse Monocytic Cell Proliferation Assay [IC50, M]” value came to 1.86e-10 M.

B8: monoclonal antibody 9.7.2IF (antibody, human IgG2, kappa, V domains shown)
VH: QVQLVESGGGLVKPGGSLRLSCAASGFTFSDYYMSWIRQAPGKGLEWVSYISSSGSTIYYADSVKGRFTISRDNAKNSLYLQMNSLRAEDTAVYYCARRIGGMDVWGQGTTVTVSS
VL: DIQMTQSPSSLSASVGDRVTITCRASQSISGFLIWYQQRPGKAPKLLIYATSSLQSGVPSRFSGSGSGTDFTLTISSLQPEDFATYYCQQSYSTPFTFGPGTKVDIKR
The molecule B8 yielded an IC50 in the assay with human M-CSF [4] of 0.529 nM. Also, in the assay with human M-CSF [5], the “Human Whole Blood Monocyte Activation Assay [IC50, M]” value amounted to 1.12e-09 M and the “M-CSF Mouse Monocytic Cell Proliferation Assay [IC50, M]” value was determined as 7.37e-10 M.

B9: monoclonal antibody 88 (antibody, human IgG2, kappa, V domains shown)
VH: EVQLVESGGGLVQPGGSLRLSCAASGFTFSSYWMSWVRQAPGKGLEWVANIKQDGSEKYYVDSVKGRFTISRDNAKNSLYLQMNSLRAEDTAVYYCAPGIAAAGRAYWGQGTLVTVSS
VL: DIQMTQSPSSLSASVGDRVTITCRPSQDISSYLNWYQQKPGKAPKLLIYAASSLQSGVPLRFSGSGSGTDFTLTISSLQPEDFATYYCQQSYSTPFTFGPGTKVDIKR
The molecule B9 showed an IC50 with human M-CSF [1] of 0.445 nM. Moreover, in the assay with human M-CSF [6], binding was put at a Kd of 1.33 nM and the koff was 7.3e-05 s⁻¹. In the assay with human M-CSF [3], the “Human Whole Blood Monocyte Activation Assay [IC50, M]” value is 5.8e-10 M and the “M-CSF Mouse Monocytic Cell Proliferation Assay [IC50, M]” value amounted to 2.31e-10 M.

B10: monoclonal antibody 9.7.2 (antibody, human IgG4, kappa, V domains shown)
VH: QVQLVESGGGLVKPGGSLRLSCAASGFTFSDYYMSWIRQAPGKGLEWVSYISSSGSTIYYADSVKGRFTISRDNAKNSLYLQMNSLRAEDTAVYYCARRIGGMDVWGQGTTVTVSS
VL: DIQMTQSPSSLSASVGDRVTITCRASQSISGFLIWYQQRPGKAPKLLIYATSSLQSGVPLRFSGSESGTDFTLTISSLQPEDFATYYCQQSYSTPFTFGPGTKVDIKR
On to B10, for which, in the assay with human M-CSF [4], the IC50 amounted to 0.006 nM. Moreover, in the assay with human M-CSF [5], the “Human Whole Blood Monocyte Activation Assay [IC50, M]” value turned out to be 1.98e-10 M and the “M-CSF Mouse Monocytic Cell Proliferation Assay [IC50, M]” value stood at 7.37e-10 M.

B11: monoclonal antibody 3.8.3 (antibody, human IgG2, kappa, V domains shown)
VH: QVQLVESGGGLVKPGGSLRLSCAASGFTFSDYYMSWIRQAPGKGLEWFSYISSSGSTIYYADSVKGRFTISRDNAKNSLSLQMNSLRAEDTAVYYCARGLTGDYWGQGTLVTVSS
VL: DIQMTQSPSSVSASVGDRVTISCRASQDISGWLAWYQQKPGKAPKLLISATSSLHSGVPSRFSGSGSGTDFTLTISSLQPEDFATYYCQQTNSFPFTFGPGTKVDIKR
Take B11: the IC50 with human M-CSF [1] came to 0.07 nM. Also, in the assay with human M-CSF [2], the Kd worked out at 0.4 nM. In addition, in the assay with human M-CSF [3], the “Human Whole Blood Monocyte Activation Assay [IC50, M]” value is 8.6e-11 M and the “M-CSF Mouse Monocytic Cell Proliferation Assay [IC50, M]” value stood at 7.3e-11 M.
